First the molecules themselves.
B1: HA.ELK-1 [not stated] / recombinant core^SRF [not stated] (parent)
chain 1: MDPSVTLWQFLLQLLREQGNGHIISWTSRDGGEFKLVDAEEVARLWGLRKNKTNMNYDKLSRALRYYYDKNIIRKVSGQKFVYKFVSYPEVAGCSTEDCPPQPEVSVTSTMPNVAPAAIHAAPGDTVSGKPGTPKGAGMAGPGGLARSSRNEYMRSGLYSTFTIQSLQPQPPPHPRPAVVLPSAAPAGAAAPPSGSRSTSPSPLEACLEAEEAGLPLQVILTPPEAPNLKSEELNVEPGLGRALPPEVKVEGPKEELEVAGERGFVPETTKAEPEVPPQEGVPARLPAVVMDTAGQAGGHAASSPEISQPQKGRKPRDLELPLSPSLLGGPGPERTPGSGSGSGLQAPGPALTPSLLPTHTLTPVLLTPSSLPPSIHFWSTLSPIAPRSPAKLSFQFPSSGSAQVHIPSISVDGLSTPVVLSPGPQKP
chain 2: SGAKPGKKTRGRVKIKMEFIDNKLRRYTTFSKRKTGIMKKAYELSTLTGTQVLLLVASETGHVYTFATRKLQPMITSETGKALIQTCLNSP

This experiment covers variants of B1. The experiment in a line: EMSA (ternary complex with coreSRF on radio-labelled SRE probe), densitometry. The note with it: parent: 100, read off a plot. (In general: A gel shift assay detects complexes by their altered migration in electrophoresis.)
For the variant chain 1 K50R K52R, the percent of parent (% of ELK-1 (WT = 100)) is 51.
chain 1 K59R: the percent of parent (% of ELK-1 (WT = 100)) was 11.

For the origin of these results see PMC6511843.
